Values belong to the binder of their own block, whether it stands above or below them.
Tests used:
[1] = molecular target: S100A6 (Genbank ID: M14300) (human, UniProt P06703 1-90); assay: Y2H 1x1 mating, binder AD fusion, target BD fusion
[2] = molecular target: T1, S100A9 (Genbank ID: M26311) (human, UniProt P06702 1-114); assay: Y2H 1x1 mating, binder AD fusion, target BD fusion
T1 construct: range 1-114; Prey from liver and muscle libraries
T1 sequence (looked up): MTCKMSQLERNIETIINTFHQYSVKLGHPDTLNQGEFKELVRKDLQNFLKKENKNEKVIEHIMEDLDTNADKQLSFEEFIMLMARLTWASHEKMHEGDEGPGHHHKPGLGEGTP

S100A1-1 = molecular target: T2, S100A1-1 (human, UniProt P23297 1-94); assay: Y2H, baits tested against each other
T2 construct: Full-length bait; also called full length S100A1
T2 sequence (looked up): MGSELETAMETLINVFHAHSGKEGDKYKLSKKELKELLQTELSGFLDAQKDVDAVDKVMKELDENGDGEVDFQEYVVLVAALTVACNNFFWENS

[3] = molecular target: the molecule itself; assay: Y2H, baits tested against each other
S100B-1 = molecular target: T3, S100B-1 (human, UniProt P04271 1-92); assay: Y2H, baits tested against each other
T3 construct: Full-length bait; also called full length S100B
T3 sequence (looked up): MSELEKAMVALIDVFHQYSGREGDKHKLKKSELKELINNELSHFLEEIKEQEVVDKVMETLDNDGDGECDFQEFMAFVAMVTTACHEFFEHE

[4] = molecular target: the molecule itself; assay: Y2H 1x1 mating, binder AD fusion, target BD fusion
[5] = molecular target: T4, STAU (Genbank ID: AF061939) (human, UniProt O95793 6-577); assay: Y2H 1x1 mating, binder AD fusion, target BD fusion
T4 construct: range 6-578; Prey from brain library; also called Staufen
T4 sequence (looked up): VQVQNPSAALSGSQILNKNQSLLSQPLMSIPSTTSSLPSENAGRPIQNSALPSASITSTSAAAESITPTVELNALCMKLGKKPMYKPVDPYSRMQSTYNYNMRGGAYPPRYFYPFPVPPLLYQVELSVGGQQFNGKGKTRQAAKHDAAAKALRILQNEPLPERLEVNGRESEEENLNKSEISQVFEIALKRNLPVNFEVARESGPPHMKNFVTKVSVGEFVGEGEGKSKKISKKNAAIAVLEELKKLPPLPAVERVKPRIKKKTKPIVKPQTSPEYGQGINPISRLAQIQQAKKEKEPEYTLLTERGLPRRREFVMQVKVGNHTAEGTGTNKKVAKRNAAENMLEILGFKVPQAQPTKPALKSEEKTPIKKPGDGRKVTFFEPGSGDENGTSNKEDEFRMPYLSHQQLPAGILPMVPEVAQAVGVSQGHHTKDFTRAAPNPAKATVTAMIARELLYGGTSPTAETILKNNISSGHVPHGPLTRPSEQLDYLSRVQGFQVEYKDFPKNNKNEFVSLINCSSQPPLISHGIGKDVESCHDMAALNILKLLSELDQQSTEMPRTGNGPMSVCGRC

binding result [1]: no binding
binding result [2]: no binding
binding result (S100A1-1): no binding
binding result (S100B-1): no binding
B1: S100B-2 (other, human, UniProt P04271 1-62, looked up)
chain: MSELEKAMVALIDVFHQYSGREGDKHKLKKSELKELINNELSHFLEEIKEQEVVDKVMETLD
notes: Truncated bait; also called truncated S100B
binding result [3]: no binding

binding result [5]: no binding
B2: PPP1R5 (Genbank ID: Y18207) (other, human, UniProt Q9UQK1 1-317, looked up)
chain: MSCTRMIQVLDPRPLTSSVMPVDVAMRLCLAHSPPVKSFLGPYDEFQRRHFVNKLKPLKSCLNIKHKAKSQNDWKCSHNQAKKRVVFADSKGLSLTAIHVFSDLPEEPAWDLQFDLLDLNDISSALKHHEEKNLILDFPQPSTDYLSFRSHFQKNFVCLENCSLQERTVTGTVKVKNVSFEKKVQIRITFDSWKNYTDVDCVYMKNVYGGTDSDTFSFAIDLPPVIPTEQKIEFCISYHANGQVFWDNNDGQNYRIVHVQWKPDGVQTQMAPQDCAFHQTSPKTELESTIFGSPRLASGLFPEWQSWGRMENLASYR
notes: Prey from brain, liver and muscle libraries
binding result [4]: no binding
